Reference: patent US20240400654A1
Substitutions are numbered along the chain they refer to. In names and notes the source's numbering stands. Several values for one entry are separate records, joined by “and”; a condition that tells them apart may be missing. Identical values can stand only once.

B1: KB001 mouse Fab VH S30Y (Fab, V domains shown)
VH: EVQLKQSGPGLVAPSQSLSITCTVSGFSLYIYSVHWVRQPPGKGLEWLGMIWGGGSSDYNSALKSRLSISKDNSKSQVFLKMNSLQTDDTAMYYCARNGNFYAMDYWGQGTSVTVSS
VL: QIVLTQSPAIMSASLGERVTMTCTASSSVSSSFLHWYQQKPGSSPQLWIYSTSNLASGVPARFSGSGSGTSYSLTISSMEAEDAATYYCHQYHHSPYIYTFGGGTKLEIK
B2: KB001 mouse Fab VH S30A (Fab, V domains shown)
VH: B1 VH with Y30A
VL: B1 VL
B3: KB001 mouse Fab VH I31T (Fab, V domains shown)
VH: B1 VH with Y30S, I31T
VL: B1 VL
B4: KB001 mouse Fab VH I31V (Fab, V domains shown)
VH: B1 VH with Y30S, I31V
VL: B1 VL
B5: KB001 mouse Fab VH I31M (Fab, V domains shown)
VH: B1 VH with Y30S, I31M
VL: B1 VL
B6: KB001 mouse Fab VH V34I (Fab, V domains shown)
VH: B1 VH with Y30S, V34I
VL: B1 VL
B7: KB001 mouse Fab VH S56A (Fab, V domains shown)
VH: B1 VH with Y30S, S56A
VL: B1 VL
B8: KB001 mouse Fab VH S57A (Fab, V domains shown)
VH: B1 VH with Y30S, S57A
VL: B1 VL
B9: KB001 mouse Fab VH S57V (Fab, V domains shown)
VH: B1 VH with Y30S, S57V
VL: B1 VL
B10: KB001 mouse Fab VH S57Q (Fab, V domains shown)
VH: B1 VH with Y30S, S57Q
VL: B1 VL
B11: KB001 mouse Fab VH Y59V (Fab, V domains shown)
VH: B1 VH with Y30S, Y59V
VL: B1 VL
B12: KB001 mouse Fab VH S61T (Fab, V domains shown)
VH: B1 VH with Y30S, S61T
VL: B1 VL
B13: KB001 mouse Fab VH S61N (Fab, V domains shown)
VH: B1 VH with Y30S, S61N
VL: B1 VL
B14: KB001 mouse Fab VH K64A (Fab, V domains shown)
VH: B1 VH with Y30S, K64A
VL: B1 VL
B15: KB001 mouse Fab VH K64R (Fab, V domains shown)
VH: B1 VH with Y30S, K64R
VL: B1 VL
B16: KB001 mouse Fab VH S65T (Fab, V domains shown)
VH: B1 VH with Y30S, S65T
VL: B1 VL
B17: KB001 mouse Fab VH S65D (Fab, V domains shown)
VH: B1 VH with Y30S, S65D
VL: B1 VL
B18: KB001 mouse Fab VH S65V (Fab, V domains shown)
VH: B1 VH with Y30S, S65V
VL: B1 VL
B19: KB001 mouse Fab VH G99Y (Fab, V domains shown)
VH: B1 VH with Y30S, G99Y
VL: B1 VL
B20: KB001 mouse Fab VH G99S (Fab, V domains shown)
VH: B1 VH with Y30S, G99S
VL: B1 VL
B21: KB001 mouse Fab VH N100E (Fab, V domains shown)
VH: B1 VH with Y30S, N100E
VL: B1 VL
B22: KB001 mouse Fab VH A103S (Fab, V domains shown)
VH: B1 VH with Y30S, A103S
VL: B1 VL
B23: KB001 mouse Fab VH Y106L (Fab, V domains shown)
VH: B1 VH with Y30S, Y106L
VL: B1 VL
B24: KB001 mouse Fab VH Y106T (Fab, V domains shown)
VH: B1 VH with Y30S, Y106T
VL: B1 VL
B25: KB001 mouse Fab VH Y106A (Fab, V domains shown)
VH: B1 VH with Y30S, Y106A
VL: B1 VL
B26: KB001 mouse Fab VH Y106V (Fab, V domains shown)
VH: B1 VH with Y30S, Y106V
VL: B1 VL
B27: KB001 mouse Fab VH Y106R (Fab, V domains shown)
VH: B1 VH with Y30S, Y106R
VL: B1 VL
B28: KB001 mouse Fab VH Y106I (Fab, V domains shown)
VH: B1 VH with Y30S, Y106I
VL: B1 VL
B29: KB001 mouse Fab VH Y106M (Fab, V domains shown)
VH: B1 VH with Y30S, Y106M
VL: B1 VL
B30: KB001 mouse Fab VH Y106F (Fab, V domains shown)
VH: B1 VH with Y30S, Y106F
VL: B1 VL
B31: KB001 mouse Fab VH Y106Q (Fab, V domains shown)
VH: B1 VH with Y30S, Y106Q
VL: B1 VL
B32: KB001 mouse Fab VH Y106K (Fab, V domains shown)
VH: B1 VH with Y30S, Y106K
VL: B1 VL
B33: KB001 mouse Fab VH Y106S (Fab, V domains shown)
VH: B1 VH with Y30S, Y106S
VL: B1 VL
B34: KB001 mouse Fab VH Y106N (Fab, V domains shown)
VH: B1 VH with Y30S, Y106N
VL: B1 VL
B35: KB001 mouse Fab VH Y106W (Fab, V domains shown)
VH: B1 VH with Y30S, Y106W
VL: B1 VL
B36: KB001 mouse Fab VH G26D (Fab, V domains shown)
VH: B1 VH with G26D, Y30S
VL: B1 VL
B37: KB001 mouse Fab VH G26N (Fab, V domains shown)
VH: B1 VH with G26N, Y30S
VL: B1 VL
B38: KB001 mouse Fab VH S28H (Fab, V domains shown)
VH: B1 VH with S28H, Y30S
VL: B1 VL
B39: KB001 mouse Fab VH S28L (Fab, V domains shown)
VH: B1 VH with S28L, Y30S
VL: B1 VL
B40: KB001 mouse Fab VH S28G (Fab, V domains shown)
VH: B1 VH with S28G, Y30S
VL: B1 VL
B41: KB001 mouse Fab VH S28A (Fab, V domains shown)
VH: B1 VH with S28A, Y30S
VL: B1 VL

Each binder was assayed against HRgpA-6H (Porphyromonas gingivalis) (UniProt P28784) (assay: ELISA, coated HRgpA-6H).
UniProt P28784, sequence (P28784 228-860 limits assumed): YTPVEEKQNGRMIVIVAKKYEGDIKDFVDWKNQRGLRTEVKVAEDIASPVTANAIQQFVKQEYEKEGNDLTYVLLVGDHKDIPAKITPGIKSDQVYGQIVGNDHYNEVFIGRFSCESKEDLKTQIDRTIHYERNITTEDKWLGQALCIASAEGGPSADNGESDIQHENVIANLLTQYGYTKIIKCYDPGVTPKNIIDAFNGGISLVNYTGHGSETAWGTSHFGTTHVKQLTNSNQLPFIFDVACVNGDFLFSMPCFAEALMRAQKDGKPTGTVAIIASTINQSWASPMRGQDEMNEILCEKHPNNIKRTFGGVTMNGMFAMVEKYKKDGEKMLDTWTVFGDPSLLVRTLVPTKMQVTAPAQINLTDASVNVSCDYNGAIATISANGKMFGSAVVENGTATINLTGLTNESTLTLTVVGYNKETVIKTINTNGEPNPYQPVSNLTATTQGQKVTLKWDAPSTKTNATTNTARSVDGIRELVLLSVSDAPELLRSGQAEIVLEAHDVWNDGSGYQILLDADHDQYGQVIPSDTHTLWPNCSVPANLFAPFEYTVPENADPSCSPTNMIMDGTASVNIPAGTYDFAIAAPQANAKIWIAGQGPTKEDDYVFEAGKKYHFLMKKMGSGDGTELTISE
B1 was tested, and the OD450 nm was 0.53 and 0.488 and the Ratio OD(Variant)/OD(WT) was 1.05 and 0.967. B2 was tested, and the OD450 nm was 0.534 and 0.499 and 0.494 and the Ratio OD(Variant)/OD(WT) was 1.06 and 0.989 and 0.979. With B3 the OD450 nm was 0.56 and 0.534 and the Ratio OD(Variant)/OD(WT) was 1.11 and 1.06. In the case of B4, the OD450 nm is reported as 0.537 and 0.521 and the Ratio OD(Variant)/OD(WT) is reported as 1.06 and 1.03. Binder B5 has an OD450 nm of 0.522 and a Ratio OD(Variant)/OD(WT) of 1.03. In the case of B6, the OD450 nm is reported as 0.891 and 0.868 and 0.866 and the Ratio OD(Variant)/OD(WT) is reported as 1.08 and 1.05 (2×). In the case of B7, the OD450 nm is reported as 0.891 and 0.86 and 0.82 and the Ratio OD(Variant)/OD(WT) is reported as 1.01 and 0.978 and 0.932. With B8 the OD450 nm was 0.922 and the Ratio OD(Variant)/OD(WT) was 1.05. With B9 the OD450 nm was 0.911 and 0.869 and the Ratio OD(Variant)/OD(WT) was 1.04 and 0.988. B10 was tested, and the OD450 nm was 0.915 and 0.863 and 0.836 and the Ratio OD(Variant)/OD(WT) was 1.04 and 0.981 and 0.951. In the case of B11, the OD450 nm is reported as 0.83 and 0.79 and the Ratio OD(Variant)/OD(WT) is reported as 1.05 and 0.999. With B12 the OD450 nm was 0.543 and 0.447 and the Ratio OD(Variant)/OD(WT) was 1.1 and 0.906. B13 showed an OD450 nm of 0.537 and a Ratio OD(Variant)/OD(WT) of 1.09. B14 gave an OD450 nm of 0.89 and a Ratio OD(Variant)/OD(WT) of 1.08. With B15 the OD450 nm was 0.87 and the Ratio OD(Variant)/OD(WT) was 1.05. Binder B16 has an OD450 nm of 0.883 and a Ratio OD(Variant)/OD(WT) of 1.07. In the case of B17, the OD450 nm is reported as 0.866 and 0.897 and the Ratio OD(Variant)/OD(WT) is reported as 1.05 and 1.08. With B18 the OD450 nm was 0.867 and the Ratio OD(Variant)/OD(WT) was 1.05. B19 showed an OD450 nm of 0.835 and a Ratio OD(Variant)/OD(WT) of 1.05. B20 was tested, and the OD450 nm was 0.809 and the Ratio OD(Variant)/OD(WT) was 1.01. In the case of B21, the OD450 nm is reported as 0.886 and the Ratio OD(Variant)/OD(WT) is reported as 1.05. Work on B22 yielded an OD450 nm of 0.909 and a Ratio OD(Variant)/OD(WT) of 1.05. B23 showed an OD450 nm of 0.791 and a Ratio OD(Variant)/OD(WT) of 1.03. Work on B24 yielded an OD450 nm of 0.827 and a Ratio OD(Variant)/OD(WT) of 1.07. B25 was tested, and the OD450 nm was 0.821 and 0.835 and the Ratio OD(Variant)/OD(WT) was 1.07 and 1.09. For B26, the OD450 nm was 0.795 and 0.84 and 0.802 and the Ratio OD(Variant)/OD(WT) was 1.03 and 1.09 and 1.04. For B27, the OD450 nm was 0.793 and the Ratio OD(Variant)/OD(WT) was 1.03. With B28 the OD450 nm was 0.803 and the Ratio OD(Variant)/OD(WT) was 1.04. With B29 the OD450 nm was 0.794 and 0.84 and the Ratio OD(Variant)/OD(WT) was 1.03 and 1.09. In the case of B30, the OD450 nm is reported as 0.815 and 0.856 and the Ratio OD(Variant)/OD(WT) is reported as 1.06 and 1.11. B31 was tested, and the OD450 nm was 0.792 and the Ratio OD(Variant)/OD(WT) was 1.03. Work on B32 yielded an OD450 nm of 0.807 and a Ratio OD(Variant)/OD(WT) of 1.05. With B33 the OD450 nm was 0.852 and 0.849 and the Ratio OD(Variant)/OD(WT) was 1.11 and 1.1. For B34, the OD450 nm was 0.792 and the Ratio OD(Variant)/OD(WT) was 1.03. In the case of B35, the OD450 nm is reported as 0.791 and 0.809 and 0.82 and the Ratio OD(Variant)/OD(WT) is reported as 1.03 and 1.05 and 1.07. B36 was tested, and the OD450 nm was 0.47 and 0.481 and the Ratio OD(Variant)/OD(WT) was 0.925 and 0.947. B37 showed an OD450 nm of 0.445 and a Ratio OD(Variant)/OD(WT) of 0.876. In the case of B38, the OD450 nm is reported as 0.511 and 0.526 and the Ratio OD(Variant)/OD(WT) is reported as 0.946 and 0.974. With B39 the OD450 nm was 0.435 and 0.468 and the Ratio OD(Variant)/OD(WT) was 0.806 and 0.867. B40 was tested, and the OD450 nm was 0.468 and 0.486 and the Ratio OD(Variant)/OD(WT) was 0.867 and 0.9. For B41, the OD450 nm was 0.488 and the Ratio OD(Variant)/OD(WT) was 0.904.
